Blank lines part the entries; values can stand above or below the binder they belong to.
Key:
[1] = target: T1, Vps5 with C-terminal TAP tag (S. cerevisiae, UniProt Q92331 1-675); experiment: tandem affinity purification
T1 sequence: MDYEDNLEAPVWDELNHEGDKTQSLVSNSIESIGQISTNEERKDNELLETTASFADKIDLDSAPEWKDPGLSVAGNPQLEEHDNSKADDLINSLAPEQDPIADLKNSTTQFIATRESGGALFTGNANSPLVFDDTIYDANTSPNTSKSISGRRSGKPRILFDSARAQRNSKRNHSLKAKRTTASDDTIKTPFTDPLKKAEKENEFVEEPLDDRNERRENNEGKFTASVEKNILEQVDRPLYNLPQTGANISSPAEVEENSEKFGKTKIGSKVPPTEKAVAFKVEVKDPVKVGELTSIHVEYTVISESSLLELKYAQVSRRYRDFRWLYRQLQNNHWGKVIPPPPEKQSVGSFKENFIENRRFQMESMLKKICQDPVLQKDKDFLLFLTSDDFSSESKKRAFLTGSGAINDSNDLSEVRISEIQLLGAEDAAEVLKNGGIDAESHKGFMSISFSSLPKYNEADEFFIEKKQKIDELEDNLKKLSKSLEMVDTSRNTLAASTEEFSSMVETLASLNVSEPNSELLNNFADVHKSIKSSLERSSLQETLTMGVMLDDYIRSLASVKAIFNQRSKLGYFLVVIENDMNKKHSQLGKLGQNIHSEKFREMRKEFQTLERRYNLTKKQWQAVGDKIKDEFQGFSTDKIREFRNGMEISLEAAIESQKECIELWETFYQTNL

[2] = target: cargo selection complex (CSC; Vps35, Vps26, Vps29) (S. cerevisiae, UniProt P34110;P40335;P38759); experiment: pull-down
[3] = target: CSC with GFP-tagged Vps29 (CSC-GFP) (S. cerevisiae, UniProt P34110;P40335;P38759); experiment: pull-down
[4] = target: T2, Vps35 with C-terminal TAP tag (S. cerevisiae, UniProt P34110 1-944); experiment: tandem affinity purification
T2 sequence: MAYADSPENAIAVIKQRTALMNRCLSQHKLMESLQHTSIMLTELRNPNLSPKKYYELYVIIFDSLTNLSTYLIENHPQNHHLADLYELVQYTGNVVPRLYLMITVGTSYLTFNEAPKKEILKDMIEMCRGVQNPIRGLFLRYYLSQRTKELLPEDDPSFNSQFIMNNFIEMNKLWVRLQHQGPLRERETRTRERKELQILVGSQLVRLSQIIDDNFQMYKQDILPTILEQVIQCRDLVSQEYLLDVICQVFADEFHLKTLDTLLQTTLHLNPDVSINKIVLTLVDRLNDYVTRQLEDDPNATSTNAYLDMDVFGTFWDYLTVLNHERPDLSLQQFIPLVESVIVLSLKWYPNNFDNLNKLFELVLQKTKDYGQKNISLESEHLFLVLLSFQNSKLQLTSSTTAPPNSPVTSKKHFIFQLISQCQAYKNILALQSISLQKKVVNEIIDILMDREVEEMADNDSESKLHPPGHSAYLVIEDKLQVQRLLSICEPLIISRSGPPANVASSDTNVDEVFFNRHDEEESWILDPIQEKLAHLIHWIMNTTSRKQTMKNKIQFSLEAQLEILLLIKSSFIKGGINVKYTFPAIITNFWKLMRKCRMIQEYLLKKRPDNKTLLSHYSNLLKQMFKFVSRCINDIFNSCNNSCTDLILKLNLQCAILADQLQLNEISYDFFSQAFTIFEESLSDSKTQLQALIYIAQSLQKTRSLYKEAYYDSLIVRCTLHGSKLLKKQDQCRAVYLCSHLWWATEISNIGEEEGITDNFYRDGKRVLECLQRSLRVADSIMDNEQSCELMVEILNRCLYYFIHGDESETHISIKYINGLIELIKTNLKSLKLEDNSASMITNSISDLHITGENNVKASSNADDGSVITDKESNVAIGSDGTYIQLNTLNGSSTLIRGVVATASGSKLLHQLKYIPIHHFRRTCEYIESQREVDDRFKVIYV

B1: Vps17 (natural protein)
chain: MTSAVPYDPYDDLDNNPFAEPQEEDSEPAATTTDGSSSMSEERVGTEQTAASVQDNGTANNIQNGLGEEGNATRSKTSNEHNENQQPSQPSERVILPERSDEKKKYTLLAKVTGLERFGSATGKKENPTIIFDCSTNLPTFRKQQYKNVKKSYEEFHQLFKYLNVAIQESFVPTLPSAYTTFGINSEEDRMKVTRNFQLWFNRLSQDPLIIRNEEVAFFIESDFNTYTPINKSKSLASGLKRKTLKQLAPPYDEITELAEFRPLVKSIYVVSQSLQEKLLRVSRNRKMMVQEENAFGQDFVNLDEHNKLYRRYGKILTAVGDIDSIIATMDMATLYDGLEWIVRDAYAVKEALTNRHFIMRNLVQAQQNSKAKQEQARRFRSRRDINPMKIDEALRQLKAAAKNEQVLTLKLQRITSNMIIERKQWISWYEEWIRSSIKEFTLRKIEYERKKLTLLERVRSDIRKADENGGLSRLGRHAVSNNNSDTSQTLKGDSWTGESNRKSQIPINKIAHTEFDDELFTEDDGYNSQDSDTTSLNARHAASLLGMSTK
binding result [1]: binds

B2: GST-tagged Ypt7 (natural protein)
chain: MSSRKKNILKVIILGDSGVGKTSLMHRYVNDKYSQQYKATIGADFLTKEVTVDGDKVATMQVWDTAGQERFQSLGVAFYRGADCCVLVYDVTNASSFENIKSWRDEFLVHANVNSPETFPFVILGNKIDAEESKKIVSEKSAQELAKSLGDIPLFLTSAKNAINVDTAFEEIARSALQQNQADTEAFEDDYNDAINIRLDGENNSCSC
binding result [2]: binds | binding result [3]: binds

Further lines, results first:

binding result [4]: binds
B3: Vps29 (natural protein)
chain: MLLLALSDAHIPDRATDLPVKFKKLLSVPDKISQVALLGNSTKSYDFLKFVNQISNNITIVRGEFDNGHLPSTKKDKASDNSRPMEEIPMNSIIRQGALKIGCCSGYTVVPKNDPLSLLALARQLDVDILLWGGTHNVEAYTLEGKFFVNPGSCTGAFNTDWPIVFDVEDSDEAVTSEVDKPTKENQSEDDDAKGGSTGKEQPGSYTPKEGTAGERENENESNVKPENQFKEDEVDMSDSDINGSNSPSFCLLDIQGNTCTLYIYLYVNGEVKVDKVVYEKE

binding result [4]: binds
B4: Vps26 (natural protein)
chain: MSIFFKPPIDIEILFDNEESRKHVDIATRSSNSSYKSMKESLPVYEDGESLGGIVTLRVRDSKKVDHLGIKVSVIGSIDMLKSHGSGNSSSKKVTSSTSSSSSNGSVDVRKNSVDQFLCQSYDLCPAGELQHSQSFPFLFRDLSKRYESYKGKNVDVAYYVKVTVMRKSTDISKIKRFWVYLYNSVTTAPNTLSANETKATTNDIAGGNYAADNASDNTQTKSTQGEAADVNQVLPISHSNNEPKPVRLDIGIENCLHIEFEYAKSQYSLKEVIVGRIYFLLTRLRIKHMELSLITRESSGLQTSNVMTDSTAIRYEIMDGSSVKGETIPIRLFLSGYDLTPNMSCNYFNVKNYLSLVIIDEDGRRYFKQSEITLYRTR

From PMC5349785 (Molecular Biology of the Cell, 2017)
